From patent publication US20230093708A1, “PROTEIN NANOPARTICLE DESIGN AND APPLICATION” (Duke University, priority 2020, published 2023)
Blank lines part the entries; values can stand above or below the molecule they belong to. Non-standard residues stand in square brackets, D forms with d. Phe(4-N3) = [N-]=[N+]=Nc1ccc(C[C@H](N)C(=O)O)cc1

Columns and labels:
αvβ3 integrin = αvβ3 integrin (Homo sapiens, UniProt P05106+P06756); test: SPR of crosslinked and native pAzF diblock constructs; format: binding; settings: crosslinked UAA5-40-based constructs
Sequence of αvβ3 integrin (P06756 31-889 limits assumed): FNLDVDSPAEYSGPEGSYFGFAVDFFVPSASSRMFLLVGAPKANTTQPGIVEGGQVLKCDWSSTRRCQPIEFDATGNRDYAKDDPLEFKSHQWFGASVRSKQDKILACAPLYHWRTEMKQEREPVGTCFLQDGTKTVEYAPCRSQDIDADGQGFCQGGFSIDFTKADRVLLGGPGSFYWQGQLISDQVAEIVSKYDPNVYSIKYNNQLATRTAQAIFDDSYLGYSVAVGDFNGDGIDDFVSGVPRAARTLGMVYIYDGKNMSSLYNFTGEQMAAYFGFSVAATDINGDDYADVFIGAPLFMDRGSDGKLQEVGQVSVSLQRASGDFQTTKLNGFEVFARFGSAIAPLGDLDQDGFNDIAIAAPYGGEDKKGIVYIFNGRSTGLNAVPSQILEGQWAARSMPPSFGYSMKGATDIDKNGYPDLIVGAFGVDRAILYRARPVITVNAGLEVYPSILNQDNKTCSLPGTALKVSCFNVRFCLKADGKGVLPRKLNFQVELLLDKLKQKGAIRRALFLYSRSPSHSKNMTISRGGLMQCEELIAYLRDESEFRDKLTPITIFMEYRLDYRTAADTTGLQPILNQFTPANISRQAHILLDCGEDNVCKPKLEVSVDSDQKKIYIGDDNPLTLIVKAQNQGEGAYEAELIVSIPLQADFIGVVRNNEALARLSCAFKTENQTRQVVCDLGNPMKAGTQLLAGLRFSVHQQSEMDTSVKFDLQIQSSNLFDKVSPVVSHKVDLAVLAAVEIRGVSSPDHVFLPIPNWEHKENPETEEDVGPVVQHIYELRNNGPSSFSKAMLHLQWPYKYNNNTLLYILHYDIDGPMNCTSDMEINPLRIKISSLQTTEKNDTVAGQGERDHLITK
Sequence of αvβ3 integrin (P06756 891-1048 partner limits assumed): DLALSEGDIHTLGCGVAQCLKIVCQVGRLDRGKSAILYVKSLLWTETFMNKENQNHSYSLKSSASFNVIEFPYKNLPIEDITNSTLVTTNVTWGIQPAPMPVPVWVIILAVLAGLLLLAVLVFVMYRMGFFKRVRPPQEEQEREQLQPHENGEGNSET
Sequence of αvβ3 integrin (P05106 27-788): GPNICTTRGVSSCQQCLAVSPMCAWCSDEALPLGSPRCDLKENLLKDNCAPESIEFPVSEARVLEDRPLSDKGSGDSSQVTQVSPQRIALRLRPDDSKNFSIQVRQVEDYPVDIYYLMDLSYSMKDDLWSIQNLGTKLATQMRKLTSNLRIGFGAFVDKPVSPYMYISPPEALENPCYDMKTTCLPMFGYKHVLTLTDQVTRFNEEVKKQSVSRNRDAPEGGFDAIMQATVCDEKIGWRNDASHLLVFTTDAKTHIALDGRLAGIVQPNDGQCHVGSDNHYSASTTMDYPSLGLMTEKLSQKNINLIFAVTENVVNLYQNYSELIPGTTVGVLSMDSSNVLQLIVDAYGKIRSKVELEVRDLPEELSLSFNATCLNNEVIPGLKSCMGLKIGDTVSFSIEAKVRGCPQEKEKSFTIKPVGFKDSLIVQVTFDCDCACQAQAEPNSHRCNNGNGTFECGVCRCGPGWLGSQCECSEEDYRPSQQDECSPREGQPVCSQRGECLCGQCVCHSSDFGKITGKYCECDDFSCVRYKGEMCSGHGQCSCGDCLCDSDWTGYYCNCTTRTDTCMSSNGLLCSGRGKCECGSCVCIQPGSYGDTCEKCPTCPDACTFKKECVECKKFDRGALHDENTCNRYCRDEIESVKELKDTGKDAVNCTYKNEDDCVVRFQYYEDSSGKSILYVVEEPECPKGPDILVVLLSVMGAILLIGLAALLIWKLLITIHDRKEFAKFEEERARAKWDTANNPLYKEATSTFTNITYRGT
Method: (§1) Though we were interested in the downstream effects of the treatment with crosslinked nanoparticles, we also wanted to investigate how chemical crosslinking affected the binding to the cell membrane receptors themselves. For this, the binding affinities of crosslinked and native diblock architectures were evaluated using surface plasmon resonance (SPR).
To characterize the integrin-targeting constructs, we started by determining the KD values of the UAA5-40-based constructs. […] A closer look at the SPR sensograms describes the mechanism for this effect where the main reason for the increased KD for the ligands is a result of vastly different association rates (kon) rather than differences in koff.

[1] = DLS of native and crosslinked pAzF diblock constructs in PBS and GuHCl; format: physicochemical
Text: We wanted to thoroughly investigate the effects of pAzF-introduction as well as nanoparticle crosslinking on nanoparticle self-assembly. For this, we started by characterizing solely our five different ELP/RLP diblock architectures without any C-terminal functionalization. After expression and purification of the diblock constructs using ITC, the pAzF-containing constructs were crosslinked in solution by exposure to UV irradiation and characterized using dynamic light scattering (DLS). […] Generally, both processes seem to have increased the measured radii with this effect being more pronounced for the worm-forming constructs.
Apart from changes in nanoparticle morphology we were particularly interested in the effect pAzF-crosslinking had on their stability. […] GuHCl is a well-known denaturing agent that disrupts any inter- and intramolecular electrostatic forces and completely breaks down the quaternary, tertiary and secondary structure of most known proteins. Covalent bonds—such as the ones formed by pAzF-crosslinking—however remain unaffected by GuHCl, thus, the addition of this denaturing agent was expected to give us insights on the stability of our crosslinked nanoparticles. […] All native samples on the other hand resorted to complete unimerization upon exposure to GuHCl. As the Rh values for the crosslinked particles in GuHCl were generally larger than in PBS, the DLS data furthermore indicates a swelling behavior in the presence of the denaturing agent. This can most probably be attributed to the RLP core which is assumed to be completely collapsed in PBS but will however try to reach an elongated, random-coil morphology in the presence of GuHCl.
The first step of the characterization process was to produce crosslinked particles for the functionalized diblock constructs and to analyze whether the attachment of the ligands had caused any significant changes in particle size. […] Whatever the reason was, it had no effect on the crosslinking process as the particles still remained stable after GuHCl exposure.
Dynamic light scattering of cross-linkable protein nanoparticles was performed. […] However, these crosslinked particles remain assembled, actually growing slightly in size due to chain swelling of the core and corona in this new buffer. These novel scaffolds support various targeting domains and assemble into nearly identically sized nanoparticles between […] in hydrodynamic radius.

[2] = Critical assembly concentration (CAC) by DLS dilution series; format: physicochemical
Method: Lastly, we also wanted to determine the critical assembly concentration (CAC) of the individual constructs. The Rh values were measured with DLS over a dilution series from the mid-micromolar down to the low nanomolar range. […] Curiously, the mere introduction of crosslinking sites seems to dramatically decrease the CAC. Generally, the worm-forming constructs had lower CACs than their spherical analogues and so do pAzF-containing constructs in comparison to analogous pAzF-free polypeptides.

DR5 = DR5 (Homo sapiens, UniProt O14763); test: SPR of DR5-targeting UAA5-40 constructs; format: binding; settings: native construct, same concentration range
Method: as §1
This extremely good binding constant can be mainly attributed to the koff rate which is so low that it is most probably even below the limit of detection of the SPR instrument. As opposed to the integrin-targeting UAA5-40 particles, we however also observed very strong binding for the native Tn3 construct in the same concentration range (FIG. 53B). […] Principally, this was not a too unexpected result since we already knew that apoptosis induction via DR5-binding required downstream trimerization of the ligand-bound DR5 receptors in the cell membrane. Therefore, we had expected that the reported multivalency requirement for Tn3-action was at least partly stemming from this mechanistic effect rather than the DR5-binding itself.

- Kd (αvβ3 integrin): 20 nM
Molecule: GRGDSPAS: UAA5-40-K8D4-ligand construct with integrin-targeting GRGDSPAS ligand (SEQ ID NO: 76)

B1: UAA4-80: pAzF-containing worm-forming diblock construct (protein)
chain: QYPSDGRGQYPSDGRGQYPSDGRGQYPSDGRG[Phe(4-N3)]QYPSDGRGQYPSDGRGQYPSDGRGQYPSDGRG[Phe(4-N3)]QYPSDGRGQYPSDGRGQYPSDGRGQYPSDGRG[Phe(4-N3)]QYPSDGRGQYPSDGRGQYPSDGRGQYPSDGRG[Phe(4-N3)]QYPSDGRGQYPSDGRGQYPSDGRGQYPSDGRG[Phe(4-N3)]
- RH (nm) ([1]; 15 μm in 7.2M GuHCl, crosslinked): 138.1 ± 12.5 nm
- RH (nm) ([1]; 15 μm in 7.2M GuHCl, native (not crosslinked)): 7.4 ± 1.9 nm
- RH (nm) ([1]; 15 μm in PBS, crosslinked): 86.2 ± 4.5 nm
- RH (nm) ([1]; 15 μm in PBS, native (not crosslinked)): 55.7 ± 2.3 nm
- CAC [2]: 30 to 50 nM

- Kd (DR5): 0.25 nM
B2: Tn3: UAA5-40-K8D4-ligand construct with DR5-targeting Tn3 ligand (SEQ ID NO: 62) (protein)
chain: AIEVKDVTDTTALITWAKPWVDPPPLWGIELTYGIKDVPGDRTTIDLQQKHTAYSIGNLKPDTEYEVSLISFDPYGMRSKPAKETFTT
